Test results taken from US7078382 (dated 2006).

What was measured:
[1] = target: KDR receptor on human umbilical vein endothelial cells (HUVEC) (human, UniProt P35968 20-1356); assay: cell-based or functional assay
[2] = target: T1, Flt-IgG (human, UniProt P17948 27-758, limits assumed); assay: competition ELISA, biotinylated native VEGF as tracer, Flt-IgG captured by anti-human Fc
T1 construct: Only described as 'a chimeric Flt-human Fc molecule'; captured by rabbit F(ab')2 to human IgG Fc; also called chimeric Flt-human Fc molecule; not shown: human IgG Fc

[3] = target: KDR receptor with a gD tag at the N-terminus, on CHO cells (UniProt P35968 20-1356); assay: cell-based or functional assay
[4] = target: T2, KDR (1-3) (UniProt P35968 20-327, limits assumed); assay: competition ELISA, biotinylated native VEGF (8-109) as tracer, KDR (1-3) captured by mAb MAKD5
T2 construct: domain: KDR (1-3); Soluble KDR (1-3) at 1 ug/ml, captured on the plate by anti-KDR monoclonal antibody MAKD5; also called KDR (1-3) monomer

[5] = target: KDR receptor (RIA of Example 11) (UniProt P35968 20-764, limits assumed); assay: RIA essentially as in Muller et al. 1997
[6] = target: FLT-1 receptor (RIA of Example 11) (UniProt P17948 27-758, limits assumed); assay: RIA essentially as in Muller et al. 1997
Sequence of FLT-1 receptor (RIA of Example 11) (P17948 27-758 limits assumed): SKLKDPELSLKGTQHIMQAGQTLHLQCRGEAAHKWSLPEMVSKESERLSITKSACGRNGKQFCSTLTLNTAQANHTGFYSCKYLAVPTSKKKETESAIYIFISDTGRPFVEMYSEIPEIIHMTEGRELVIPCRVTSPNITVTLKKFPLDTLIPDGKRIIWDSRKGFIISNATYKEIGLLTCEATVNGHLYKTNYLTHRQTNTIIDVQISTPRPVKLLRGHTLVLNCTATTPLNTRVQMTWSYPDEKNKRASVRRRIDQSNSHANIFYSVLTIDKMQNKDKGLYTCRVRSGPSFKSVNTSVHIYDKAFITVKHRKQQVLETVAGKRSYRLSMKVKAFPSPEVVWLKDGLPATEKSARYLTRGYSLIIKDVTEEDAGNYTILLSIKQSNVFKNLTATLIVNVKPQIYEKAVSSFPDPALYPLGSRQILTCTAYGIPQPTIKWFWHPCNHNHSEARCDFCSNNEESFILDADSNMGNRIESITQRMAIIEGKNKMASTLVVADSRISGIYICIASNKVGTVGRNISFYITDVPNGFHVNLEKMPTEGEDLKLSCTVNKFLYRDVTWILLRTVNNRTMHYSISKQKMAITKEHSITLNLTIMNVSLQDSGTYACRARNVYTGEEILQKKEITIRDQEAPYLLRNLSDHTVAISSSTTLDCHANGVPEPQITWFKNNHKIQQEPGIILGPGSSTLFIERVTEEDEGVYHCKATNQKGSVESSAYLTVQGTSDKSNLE

T2 sequence (P35968 20-327 limits assumed): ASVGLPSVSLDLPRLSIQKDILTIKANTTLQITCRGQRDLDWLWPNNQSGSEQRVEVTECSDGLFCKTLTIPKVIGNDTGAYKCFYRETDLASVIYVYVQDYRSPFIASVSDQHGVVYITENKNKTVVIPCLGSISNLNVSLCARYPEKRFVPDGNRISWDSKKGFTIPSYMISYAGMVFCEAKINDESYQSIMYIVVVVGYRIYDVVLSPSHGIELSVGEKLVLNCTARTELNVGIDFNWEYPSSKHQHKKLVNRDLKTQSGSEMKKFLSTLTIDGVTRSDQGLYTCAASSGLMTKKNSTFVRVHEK
Sequence of KDR receptor on human umbilical vein endothelial cells (HUVEC) (P35968 20-1356): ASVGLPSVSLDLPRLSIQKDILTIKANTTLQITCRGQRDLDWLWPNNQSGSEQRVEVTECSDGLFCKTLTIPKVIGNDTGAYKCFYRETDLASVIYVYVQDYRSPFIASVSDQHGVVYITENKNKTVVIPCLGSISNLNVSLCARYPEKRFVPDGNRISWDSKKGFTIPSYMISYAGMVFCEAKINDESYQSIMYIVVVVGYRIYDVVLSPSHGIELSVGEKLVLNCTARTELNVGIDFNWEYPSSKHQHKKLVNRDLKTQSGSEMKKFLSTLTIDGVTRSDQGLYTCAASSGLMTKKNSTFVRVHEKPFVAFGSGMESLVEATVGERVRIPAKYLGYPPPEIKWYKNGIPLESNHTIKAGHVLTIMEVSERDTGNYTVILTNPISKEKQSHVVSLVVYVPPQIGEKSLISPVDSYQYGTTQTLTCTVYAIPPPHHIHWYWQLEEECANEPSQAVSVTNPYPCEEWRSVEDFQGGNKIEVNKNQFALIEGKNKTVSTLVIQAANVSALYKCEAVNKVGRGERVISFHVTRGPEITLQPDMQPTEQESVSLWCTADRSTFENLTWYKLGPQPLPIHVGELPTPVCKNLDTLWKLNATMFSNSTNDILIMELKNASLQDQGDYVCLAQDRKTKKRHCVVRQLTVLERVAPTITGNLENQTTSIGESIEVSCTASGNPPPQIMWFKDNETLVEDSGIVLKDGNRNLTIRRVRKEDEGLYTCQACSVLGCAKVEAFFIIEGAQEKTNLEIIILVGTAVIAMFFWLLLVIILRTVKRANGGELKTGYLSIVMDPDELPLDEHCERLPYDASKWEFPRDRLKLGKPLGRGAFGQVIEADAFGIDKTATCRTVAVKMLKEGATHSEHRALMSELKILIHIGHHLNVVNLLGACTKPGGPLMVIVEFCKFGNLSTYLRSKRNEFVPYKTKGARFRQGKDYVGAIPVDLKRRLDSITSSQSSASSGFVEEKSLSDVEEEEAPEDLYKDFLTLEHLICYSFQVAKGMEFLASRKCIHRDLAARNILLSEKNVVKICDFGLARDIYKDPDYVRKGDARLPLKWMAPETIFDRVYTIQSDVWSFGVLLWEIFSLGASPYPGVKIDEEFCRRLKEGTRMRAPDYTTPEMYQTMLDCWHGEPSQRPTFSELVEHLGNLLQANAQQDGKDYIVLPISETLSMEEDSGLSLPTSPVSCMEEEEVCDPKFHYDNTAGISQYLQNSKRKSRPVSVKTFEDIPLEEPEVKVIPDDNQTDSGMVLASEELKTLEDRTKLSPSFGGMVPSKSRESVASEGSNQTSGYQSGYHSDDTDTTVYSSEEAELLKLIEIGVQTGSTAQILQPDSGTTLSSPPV
T1 sequence (P17948 27-758 limits assumed): as the sequence (P17948 27-758 limits assumed) above
Sequence of KDR receptor (RIA of Example 11) (P35968 20-764 limits assumed): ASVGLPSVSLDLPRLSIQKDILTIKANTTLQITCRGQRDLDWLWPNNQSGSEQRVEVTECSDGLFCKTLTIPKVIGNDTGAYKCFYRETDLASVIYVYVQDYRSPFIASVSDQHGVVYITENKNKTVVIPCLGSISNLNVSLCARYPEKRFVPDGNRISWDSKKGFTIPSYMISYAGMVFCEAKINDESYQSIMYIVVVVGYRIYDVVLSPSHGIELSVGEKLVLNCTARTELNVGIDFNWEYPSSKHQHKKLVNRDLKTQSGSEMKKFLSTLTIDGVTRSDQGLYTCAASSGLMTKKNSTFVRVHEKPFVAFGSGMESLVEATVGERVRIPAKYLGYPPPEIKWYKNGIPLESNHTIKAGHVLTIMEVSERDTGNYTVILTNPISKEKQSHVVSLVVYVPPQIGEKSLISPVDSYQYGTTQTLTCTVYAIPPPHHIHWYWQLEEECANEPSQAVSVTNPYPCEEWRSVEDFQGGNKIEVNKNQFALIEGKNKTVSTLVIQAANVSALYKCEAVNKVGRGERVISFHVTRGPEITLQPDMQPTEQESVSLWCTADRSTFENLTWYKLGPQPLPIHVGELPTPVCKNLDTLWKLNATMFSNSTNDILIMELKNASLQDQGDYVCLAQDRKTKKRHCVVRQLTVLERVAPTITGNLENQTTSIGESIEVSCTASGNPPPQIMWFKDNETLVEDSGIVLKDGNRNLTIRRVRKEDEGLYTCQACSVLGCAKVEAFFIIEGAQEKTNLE

Binder | IC50 [4] [nM] | Relative Binding Affinity [4] | also measured
LK-VRB-2f (ligand, also called KDR-full) APMAEGGGQNHHEVVKFMDVYQRSYCHPIETLVDIFQEYPDEIEYIFKPSCVPLMRCGGCCNSEMRECVPTEESNITMQIMRIKPHQGQHIGEMSFLQHNKCECRPKKDRARQENPCGPCSERRKHLFVQDPQTCKCSCKNTDSRCKARQLELNERTCRCDKPRR |  |  | Endothelial Cell Proliferation Activity (HUVEC, 3H-thymidine), concentration [1]: 0.05 nM; IC50 [2]: 19 nM
native VEGF (8-109) (ligand) GQNHHEVVKFMDVYQRSYCHPIETLVDIFQEYPDEIEYIFKPSCVPLMRCGGCCNDEGLECVPTEESNITMQIMRIKPHQGQHIGEMSFLQHNKCECRPKKD |  |  | Endothelial Cell Proliferation Activity (HUVEC, 3H-thymidine), concentration [1]: 0.5 nM; Phosphorylation-Inducing Activity (KIRA), concentration at midpoint [3]: 2 nM; IC50 [2]: 0.42 nM
LK-VRB-17s (ligand) APMAEGGGQNHHEVVKFEDVLRRSYCHPIETLVDIFQEYPDEIEYIFKPSCVPLMRCGGCCNSEMRECVPTEESNITMQIMRIKPHQGQHIGEMSFLQHNKCECRPKKD | 3 | 3 fold of native VEGF (8-109) | 
LK-VRB-18s (ligand) APMAEGGGQNHHEVVKFEDVLQRSSCHPIETLVDIFQEYPDEIEYIFKPSCVPLMRCGGCCNSEMRECVPTEESNITMQIMRIKPHQGQHIGEMSFLQHNKCECRPKKD | 130 | 130 fold of native VEGF (8-109) | 
LK-VRB-24s (ligand) APMAEGGGQNHHEVVKFEDVLRRSSCHPIETLVDIFQEYPDEIEYIFKPSCVPLMRCGGCCNSEMLECVPTEESNITMQIMRIKPHQGQHIGEMSFLQHNKCECRPKKD | 10 | 10 fold of native VEGF (8-109) | 
LK-VRB-4s (ligand) APMAEGGGQNHHEVVKIEDVFERSICHPIETLVDIFQEYPDEIEYIFKPSCVPLMRCGGCCNDEGLECVPTEESNITMQIMRIKPHQGQHIGEMSFLQHNKCECRPKKD | 1 | 1 fold of native VEGF (8-109) | Phosphorylation-Inducing Activity (KIRA), concentration at midpoint [3]: 1 nM; Phosphorylation-Inducing Activity (KIRA), ratio to native VEGF (8-109) [3]: 0.5 fold of native VEGF (8-109); IC50 [2]: 100 nM; Relative Binding Affinity [2]: 200 fold of native VEGF (8-109)
LK-VRB-1s* (ligand) APMAEGGGQNHHEVVKFEDVLRRSSCHPIETLVDIFQEYPDEIEYIFKPSCVPLMRCGGCCNDEGLECVPTEESNITMQIMRIKPHQGQHIGEMSFLQHNKCECRPKKD | 1 | 1 fold of native VEGF (8-109) | Endothelial Cell Proliferation Activity (HUVEC, 3H-thymidine), concentration [1]: 0.1 nM; Endothelial Cell Proliferation Activity (HUVEC, 3H-thymidine), ratio to native VEGF (8-109) [1]: 0.2 fold of native VEGF (8-109); Phosphorylation-Inducing Activity (KIRA), concentration at midpoint [3]: 1 nM; Phosphorylation-Inducing Activity (KIRA), ratio to native VEGF (8-109) [3]: 0.5 fold of native VEGF (8-109); IC50 [2]: 2700 nM; Relative Binding Affinity [2]: 6000 fold of native VEGF (8-109); Relative Binding Affinity [5]: 20 fold of native VEGF 165; Relative Binding Affinity [6]: 14000 fold of native VEGF 165
LK-VRB-21s (ligand) APMAEGGGQNHHEVVKFEDVLRRSSCHPIETLVDIFQEYPDEIEYIFKPSCVPLMRCGGCCNSEGLECVPTEESNITMQIMRIKPHQGQHIGEMSFLQHNKCECRPKKD | 3 | 3 fold of native VEGF (8-109) | 
LK-VRB-20s (ligand) APMAEGGGQNHHEVVKFMDVLRRSSCHPIETLVDIFQEYPDEIEYIFKPSCVPLMRCGGCCNSEMRECVPTEESNITMQIMRIKPHQGQHIGEMSFLQHNKCECRPKKD | 2 | 2 fold of native VEGF (8-109) | 
LK-VRB-12s (ligand) APMAEGGGQNHHEVVKFEDVYRRSYCHPIETLVDIFQEYPDEIEYIFKPSCVPLMRCGGCCNSEMRECVPTEESNITMQIMRIKPHQGQHIGEMSFLQHNKCECRPKKD | 0.4 | 0.4 fold of native VEGF (8-109) | 
LK-VRB-8s* (ligand) APMAEGGGQNHHEVVKFMDVLQRSYCHPIETLVDIFQEYPDEIEYIFKPSCVPLMRCGGCCNSEMRECVPTEESNITMQIMRIKPHQGQHIGEMSFLQHNKCECRPKKD | 0.5 | 0.5 fold of native VEGF (8-109) | Endothelial Cell Proliferation Activity (HUVEC, 3H-thymidine), concentration [1]: 0.5 nM; Endothelial Cell Proliferation Activity (HUVEC, 3H-thymidine), ratio to native VEGF (8-109) [1]: 1 fold of native VEGF (8-109); Relative Binding Affinity [2]: > 21000 fold of native VEGF (8-109)
LK-VRB-2s* (ligand) APMAEGGGQNHHEVVKFMDVYQRSYCHPIETLVDIFQEYPDEIEYIFKPSCVPLMRCGGCCNSEMRECVPTEESNITMQIMRIKPHQGQHIGEMSFLQHNKCECRPKKD |  |  | Endothelial Cell Proliferation Activity (HUVEC, 3H-thymidine), concentration [1]: 0.05 nM; Phosphorylation-Inducing Activity (KIRA), concentration at midpoint [3]: 2 nM
LK-VRB-16s (ligand) APMAEGGGQNHHEVVKFMDVYRRSSCHPIETLVDIFQEYPDEIEYIFKPSCVPLMRCGGCCNSEMRECVPTEESNITMQIMRIKPHQGQHIGEMSFLQHNKCECRPKKD | 0.6 | 0.6 fold of native VEGF (8-109) | 
LK-VRB-7s* (ligand) APMAEGGGQNHHEVVKFEDVYQRSYCHPIETLVDIFQEYPDEIEYIFKPSCVPLMRCGGCCNSEMRECVPTEESNITMQIMRIKPHQGQHIGEMSFLQHNKCECRPKKD | 1 | 1 fold of native VEGF (8-109) | Endothelial Cell Proliferation Activity (HUVEC, 3H-thymidine), concentration [1]: 0.5 nM; Endothelial Cell Proliferation Activity (HUVEC, 3H-thymidine), ratio to native VEGF (8-109) [1]: 1 fold of native VEGF (8-109); Relative Binding Affinity [2]: > 15000 fold of native VEGF (8-109)
LK-VRB-22s (ligand) APMAEGGGQNHHEVVKFEDVLRRSSCHPIETLVDIFQEYPDEIEYIFKPSCVPLMRCGGCCNDEMLECVPTEESNITMQIMRIKPHQGQHIGEMSFLQHNKCECRPKKD | 4 | 4 fold of native VEGF (8-109) | 
LK-VRB-9s (ligand) APMAEGGGQNHHEVVKFMDVYRRSYCHPIETLVDIFQEYPDEIEYIFKPSCVPLMRCGGCCNSEMRECVPTEESNITMQIMRIKPHQGQHIGEMSFLQHNKCECRPKKD | 0.5 | 0.5 fold of native VEGF (8-109) | Relative Binding Affinity [2]: 300 fold of native VEGF (8-109)
LK-VRB-13s (ligand) APMAEGGGQNHHEVVKFEDVYQRSSCHPIETLVDIFQEYPDEIEYIFKPSCVPLMRCGGCCNSEMRECVPTEESNITMQIMRIKPHQGQHIGEMSFLQHNKCECRPKKD | 14 | 14 fold of native VEGF (8-109) | 
LK-VRB-11s (ligand) APMAEGGGQNHHEVVKFEDVLQRSYCHPIETLVDIFQEYPDEIEYIFKPSCVPLMRCGGCCNSEMRECVPTEESNITMQIMRIKPHQGQHIGEMSFLQHNKCECRPKKD | 2 | 2 fold of native VEGF (8-109) | 
LK-VRB-15s (ligand) APMAEGGGQNHHEVVKFMDVLQRSSCHPIETLVDIFQEYPDEIEYIFKPSCVPLMRCGGCCNSEMRECVPTEESNITMQIMRIKPHQGQHIGEMSFLQHNKCECRPKKD | 2 | 2 fold of native VEGF (8-109) | 
LK-VRB-3s (ligand) APMAEGGGQNHHEVVKIEDVFKRSSCHPIETLVDIFQEYPDEIEYIFKPSCVPLMRCGGCCNDEGLECVPTEESNITMQIMRIKPHQGQHIGEMSFLQHNKCECRPKKD | 1 | 1 fold of native VEGF (8-109) | Phosphorylation-Inducing Activity (KIRA), concentration at midpoint [3]: 2 nM; Phosphorylation-Inducing Activity (KIRA), ratio to native VEGF (8-109) [3]: 1 fold of native VEGF (8-109); IC50 [2]: 170 nM; Relative Binding Affinity [2]: 400 fold of native VEGF (8-109)
LK-VRB-14s (ligand) APMAEGGGQNHHEVVKFMDVLRRSYCHPIETLVDIFQEYPDEIEYIFKPSCVPLMRCGGCCNSEMRECVPTEESNITMQIMRIKPHQGQHIGEMSFLQHNKCECRPKKD | 0.5 | 0.5 fold of native VEGF (8-109) | 
LK-VRB-23s (ligand) APMAEGGGQNHHEVVKFEDVLRRSSCHPIETLVDIFQEYPDEIEYIFKPSCVPLMRCGGCCNDEGRECVPTEESNITMQIMRIKPHQGQHIGEMSFLQHNKCECRPKKD | 11 | 11 fold of native VEGF (8-109) | 
LK-VRB-10s (ligand) APMAEGGGQNHHEVVKFMDVYQRSSCHPIETLVDIFQEYPDEIEYIFKPSCVPLMRCGGCCNSEMRECVPTEESNITMQIMRIKPHQGQHIGEMSFLQHNKCECRPKKD | 0.5 | 0.5 fold of native VEGF (8-109) | 
LK-VRB-25s (ligand) APMAEGGGQNHHEVVKFEDVLRRSSCHPIETLVDIFQEYPDEIEYIFKPSCVPLMRCGGCCNSEGRECVPTEESNITMQIMRIKPHQGQHIGEMSFLQHNKCECRPKKD | 4 | 4 fold of native VEGF (8-109) | 
LK-VRB-26s (ligand) APMAEGGGQNHHEVVKFEDVLRRSSCHPIETLVDIFQEYPDEIEYIFKPSCVPLMRCGGCCNDEMRECVPTEESNITMQIMRIKPHQGQHIGEMSFLQHNKCECRPKKD | 23 | 23 fold of native VEGF (8-109) | 
